Measurements as given in IntAct's records for PubMed 29039417.

B1: BBSome complex member BBS2 (Homo sapiens), Q9BXC9 (parent)
chain: MLLPVFTLKLRHKISPRMVAIGRYDGTHPCLAAATQTGKVFIHNPHTRNQHVSASRVFQSPLESDVSLLSINQAVSCLTAGVLNPELGYDALLVGTQTNLLAYDVYNNSDLFYREVADGANAIVLGTLGDISSPLAIIGGNCALQGFNHEGSDLFWTVTGDNVNSLALCDFDGDGKKELLVGSEDFDIRVFKEDEIVAEMTETEIVTSLCPMYGSRFGYALSNGTVGVYDKTSRYWRIKSKNHAMSIHAFDLNSDGVNELITGWSNGKVDARSDRTGEVIFKDNFSSAIAGVVEGDYRMDGHIQLICCSVDGEIRGYLPGTAEMRGNLMDTSAEQDLIRELSQKKQNLLLELRNYEENAKAELASPLNEADGHRGIIPANTRLHTTLSVSLGNETQTAHTELRISTSNDTIIRAVLIFAEGIFTGESHVVHPSIHNLSSSICIPIVPPKDVPVDLHLKAFVGYRSSTQFHVFESTRQLPRFSMYALTSLDPASEPISYVNFTIAERAQRVVVWLGQNFLLPEDTHIQNAPFQVCFTSLRNGGHLHIKIKLSGEITINTDDIDLAGDIIQSMASFFAIEDLQVEADFPVYFEELRKVLVKVDEYHSVHQKLSADMADHSNLIRSLLVGAEDARLMRDMKTMKSRYMELYDLNRDLLNGYKIRCNNHTELLGNLKAVNQAIQRAGRLRVGKPKNQVITACRDAIRSNNINTLFKIMRVGTASS
partner: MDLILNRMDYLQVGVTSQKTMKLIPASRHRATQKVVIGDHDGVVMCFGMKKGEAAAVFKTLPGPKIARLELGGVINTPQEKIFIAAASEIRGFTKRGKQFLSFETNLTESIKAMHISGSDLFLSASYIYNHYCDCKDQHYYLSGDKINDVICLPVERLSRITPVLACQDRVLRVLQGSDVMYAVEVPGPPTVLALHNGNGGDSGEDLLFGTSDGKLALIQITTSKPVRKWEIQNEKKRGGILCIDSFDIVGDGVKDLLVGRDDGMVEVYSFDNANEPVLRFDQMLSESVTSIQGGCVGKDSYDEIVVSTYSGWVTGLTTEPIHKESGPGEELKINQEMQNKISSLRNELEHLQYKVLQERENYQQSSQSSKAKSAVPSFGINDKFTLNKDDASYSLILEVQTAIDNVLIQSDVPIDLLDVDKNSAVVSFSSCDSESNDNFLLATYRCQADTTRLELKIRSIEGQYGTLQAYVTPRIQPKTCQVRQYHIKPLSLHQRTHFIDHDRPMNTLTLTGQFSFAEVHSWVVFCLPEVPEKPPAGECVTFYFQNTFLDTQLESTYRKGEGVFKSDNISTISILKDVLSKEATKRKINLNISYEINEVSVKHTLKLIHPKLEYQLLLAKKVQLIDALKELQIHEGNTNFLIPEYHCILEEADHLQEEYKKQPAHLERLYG

Variants of: B1
Conditions: with BBS7, Q8IWZ6-2

Variant | effect of a mutation on the interaction
P444E | with no effect
S551A | with no effect
D450A | with no effect
T467K | with no effect
T467A | with no effect
I546A | with no effect
L328A | with no effect
F423E | with no effect
F423K | with no effect
Q532A | disrupting interaction strength
Q608E | with no effect
S388A | with no effect
A719E | with no effect
L457K | disrupting interaction strength
H607E | with no effect
T487E | with no effect
R622K | with no effect
A359K | with no effect
R413E | with no effect
I713K | with no effect
E362A | with no effect
A576E | with no effect
M329K | with no effect

Variant | effect of a mutation on the interaction
E629K | with no effect
K549E | with no effect
F481K | disrupting interaction strength
S466E | disrupting interaction strength
L437K | disrupting interaction strength
R403E | with no effect
L647K | with no effect
E426A | with no effect
L520K | with no effect
L520E | with no effect
A628K | disrupting interaction strength
N706A | with no effect
D454K | with no effect
D562A | disrupting interaction strength
T502E | with no effect
T502K | with no effect
K599E | with no effect
L633E | with no effect
G515K | with no effect
V716A | with no effect
D490K | with no effect
D490E | with no effect
D560A | disrupting interaction strength

Variant | effect of a mutation on the interaction
S570E | with no effect
S570A | with no effect
S427A | with no effect
N528K | with no effect
F469M | disrupting interaction strength
F469E | with no effect
F469K | with no effect
V675E | with no effect
V596E | with no effect
T385A | with no effect
G683E | with no effect
G683K | with no effect
Q335A | with no effect
I695E | with no effect
E602A | with no effect
T395K | with no effect
T395E | with no effect
T395A | with no effect
I338E | with no effect
H384P | disrupting interaction strength
H384K | with no effect
H384A | with no effect
Q508E | with no effect

Variant | effect of a mutation on the interaction
F472E | with no effect
Q693K | with no effect
Q693A | with no effect
D613E | with no effect
F501A | with no effect
T718A | with no effect
M645K | with no effect
G541K | with no effect
T709E | with no effect
M614A | with no effect
M614K | with no effect
N671E | disrupting interaction strength
G462K | with no effect
G627E | with no effect
H617E | with no effect
I621E | with no effect
H428A | with no effect
S440A | disrupting interaction strength
F535E | with no effect
E505A | with no effect
R684E | with no effect
